Data published in publication PMC5473807, “Distribution and kinetics of the Kv1.3-blocking peptide HsTX1[R14A] in experimental rats” (Scientific Reports, 2017).
Read-outs that look alike come from different tables or passages of the source.

Experiment: In vivo biodistribution by organ and tissue extraction
Parameters: species or system male Wistar rats
Settings: for tissue uptake dose at 4 h / SUV at 24 h / tissue uptake dose at 24 h / SUV at 48 h / tissue uptake dose at 48 h / SUV at 1 h / tissue uptake dose at 1 h / SUV at 4 h / tissue uptake dose at 5 min / SUV at 5 min / tissue uptake dose: male, Wistar, total radioactivity; for tissue uptake dose at 4 h / SUV at 4 h: 240 min p.i.; for tissue uptake dose at 4 h / SUV at 24 h / tissue uptake dose at 24 h / SUV at 48 h / tissue uptake dose at 48 h / SUV at 1 h / tissue uptake dose at 1 h / SUV at 4 h / tissue uptake dose at 5 min / SUV at 5 min: mean ± SD; for SUV at 24 h / tissue uptake dose at 24 h: 1440 min p.i.; for SUV at 48 h / tissue uptake dose at 48 h: 2880 min p.i.; for SUV at 1 h / tissue uptake dose at 1 h: 60 min p.i.; for tissue uptake dose at 5 min / SUV at 5 min: 5 min p.i.; for tissue uptake dose: whole body, end of observation (Fig. 7c), time not given, mean ± SEM, read-out: remaining activity in the body; for AUC Kidney / AUC Liver: calculated between 1 and 48 h; for t1/2 Blood / t1/2 Kidney / t1/2 Liver: calculated from 24 to 48 h
Description: The present study includes data obtained from a total of 50 animals. Four animals (body weight 227 ± 10 g) for each time point were injected intravenously into a tail vein or subcutaneously with approximately 0.3 MBq ([…]) [^64Cu]Cu-NOTA-HsTX1[R14A] conjugate in 0.5 mL electrolyte solution E-153 (Serumwerk Bernburg, Germany). Animals were euthanised at 5, 60, 240, 1440 and 2880 min post-injection. Blood and the major organs were collected, weighed, and counted in a cross-calibrated γ-counter (Isomed 1000, Isomed GmbH, Dresden) and Wallac WIZARD Automatic Gamma Counter (PerkinElmer, Germany). The radioactivity of the tissue samples was decay-corrected and calibrated by comparing the counts in tissue with the counts in aliquots of the injected radiotracer that had been measured in the γ-counter at the same time. The activity in the selected organs was expressed as percent-injected dose per organ (% ID) and the activity concentration in tissues and organs as standardised uptake value (SUV). Values are quoted as mean ± standard error of mean (SEM) for each group of four animals.

[1] = testes, iv, 0.3 MBq, rat, i.v., n=4, read-out: Testes activity amount
[2] = testes, sc, 0.3 MBq, rat, s.c., n=4, read-out: Testes SUV
[3] = testes, sc, 0.3 MBq, rat, s.c., n=4, read-out: Testes activity amount
[4] = thymus, iv, 0.3 MBq, rat, i.v., n=4, read-out: Thymus activity amount
[5] = thymus, iv, 0.3 MBq, rat, i.v., n=8, read-out: Thymus activity amount
[6] = thymus, iv, rat, i.v., n=4, read-out: Thymus SUV
[7] = thymus, iv, rat, i.v., n=8, read-out: Thymus SUV
[8] = thymus, sc, 0.3 MBq, rat, s.c., n=4, read-out: Thymus activity amount
[9] = thymus, sc, rat, s.c., n=4, read-out: Thymus SUV
[10] = thyroid, iv, 0.3 MBq, rat, i.v., n=4, read-out: Thyroid activity amount
[11] = thyroid, iv, 0.3 MBq, rat, i.v., n=8, read-out: Thyroid activity amount
[12] = thyroid, sc, 0.3 MBq, rat, s.c., n=4, read-out: Thyroid activity amount
[13] = white adipose tissue, iv, 0.3 MBq, rat, i.v., n=4, read-out: WAT (white adipose tissue) SUV
[14] = white adipose tissue, iv, 0.3 MBq, rat, i.v., n=8, read-out: WAT (white adipose tissue) SUV
[15] = white adipose tissue, sc, 0.3 MBq, rat, s.c., n=4, read-out: WAT (white adipose tissue) SUV
[16] = whole blood, iv, 0.3 MBq, rat, i.v., n=4, read-out: Blood SUV

CSCC[C@@H]1NC(=O)[C@@H]2CSSC[C@H](NC(=O)[C@H](CO)NC(=O)[C@H](C)NC(=O)COCCOCCNC(=O)CN3CCN(CC(=O)O)CCN(CC(=O)O)CC3)C(=O)N[C@@H](CCCNC(=N)N)C(=O)N[C@@H]([C@@H](C)O)C(=O)N3CCC[C@H]3C(=O)N[C@@H](CCCCN)C(=O)N[C@@H](CC(=O)O)C(=O)N[C@H]3CSSC[C@H](NC(=O)[C@H](CCCCN)NC(=O)[C@H](CCCNC(=N)N)NC(=O)[C@H](CC(N)=O)NC1=O)C(=O)N[C@@H](CCCCN)C(=O)N[C@H]1CSSC[C@H](NC(=O)[C@@H]4CCCN4C(=O)[C@H](CC(=O)O)NC(=O)[C@H](C)NC3=O)C(=O)N[C@@H](C)C(=O)N[C@@H](CCCCN)C(=O)N[C@@H](CCC(=O)O)C(=O)N[C@@H]([C@@H](C)O)C(=O)NCC(=O)N[C@@H](CSSC[C@@H](C(N)=O)NC(=O)[C@H](CCCNC(=N)N)NC(=O)[C@H](CC(N)=O)NC1=O)C(=O)N1CCC[C@H]1C(=O)N[C@@H](Cc1ccc(O)cc1)C(=O)NCC(=O)N[C@@H](CCCCN)C(=O)N2 [[^64Cu]Cu-NOTA-HsTX1[R14A], metal not drawn]
tissue uptake dose at 4 h [1]: 0.21 ± 0.01 %ID | SUV at 24 h (testes, iv, 0.3 MBq, rat, i.v., n=8, read-out: Testes SUV): 0.87 ± 0.34 SUV | tissue uptake dose at 24 h (testes, iv, 0.3 MBq, rat, i.v., n=8, read-out: Testes activity amount): 1.05 ± 0.13 %ID | SUV at 48 h (testes, iv, 0.3 MBq, rat, i.v., n=4, read-out: Testes SUV): 0.5 ± 0.02 SUV | tissue uptake dose at 48 h [1]: 0.76 ± 0.02 %ID | SUV at 1 h [2]: 0.15 ± 0.01 SUV | tissue uptake dose at 1 h [3]: 0.21 ± 0.01 %ID | SUV at 4 h [2]: 0.12 ± 0.01 SUV | tissue uptake dose at 4 h [3]: 0.2 ± 0.03 %ID | SUV at 24 h [2]: 0.54 ± 0.02 SUV | tissue uptake dose at 24 h [3]: 0.92 ± 0.06 %ID | SUV at 48 h [2]: 0.44 ± 0.01 SUV | tissue uptake dose at 48 h [3]: 0.63 ± 0.06 %ID | tissue uptake dose at 5 min [4]: 0.37 ± 0.07 %ID | tissue uptake dose at 1 h [5]: 0.37 ± 0.08 %ID | tissue uptake dose at 4 h [4]: 0.37 ± 0.04 %ID | tissue uptake dose at 24 h [5]: 0.21 ± 0.03 %ID | tissue uptake dose at 48 h [4]: 0.17 ± 0.02 %ID | SUV at 5 min [6]: 1.51 ± 0.08 SUV | SUV at 1 h [7]: 1.33 ± 0.19 SUV | SUV at 4 h [6]: 1.07 ± 0.02 SUV | SUV at 24 h [7]: 0.74 ± 0.15 SUV | SUV at 48 h [6]: 0.53 ± 0.02 SUV | tissue uptake dose at 1 h [8]: 0.46 ± 0.01 %ID | tissue uptake dose at 4 h [8]: 0.43 ± 0.04 %ID | tissue uptake dose at 24 h [8]: 0.22 ± 0.01 %ID | tissue uptake dose at 48 h [8]: 0.16 ± 0.02 %ID | SUV at 1 h [9]: 1.15 ± 0.03 SUV | SUV at 4 h [9]: 1.07 ± 0.11 SUV | SUV at 24 h [9]: 0.63 ± 0.05 SUV | SUV at 48 h [9]: 0.46 ± 0.05 SUV | tissue uptake dose at 5 min [10]: 0.07 %ID | tissue uptake dose at 1 h [11]: 0.11 ± 0.02 %ID | tissue uptake dose at 4 h [10]: 0.12 ± 0.01 %ID | tissue uptake dose at 24 h [11]: 0.08 ± 0.01 %ID | tissue uptake dose at 48 h [10]: 0.07 ± 0.02 %ID | tissue uptake dose at 1 h [12]: 0.13 ± 0.02 %ID | tissue uptake dose at 4 h [12]: 0.11 ± 0.02 %ID | tissue uptake dose at 24 h [12]: 0.09 ± 0.05 %ID | tissue uptake dose at 48 h [12]: 0.03 ± 0.02 %ID | SUV at 5 min [13]: 0.28 ± 0.06 SUV | SUV at 1 h [14]: 0.19 ± 0.07 SUV | SUV at 4 h [13]: 0.15 SUV | SUV at 24 h [14]: 0.19 ± 0.09 SUV | SUV at 48 h [13]: 0.34 ± 0.08 SUV | SUV at 1 h [15]: 0.25 ± 0.05 SUV | SUV at 4 h [15]: 0.17 ± 0.05 SUV | SUV at 24 h [15]: 0.22 ± 0.01 SUV | SUV at 48 h [15]: 0.17 ± 0.08 SUV | SUV at 4 h [16]: 0.51 ± 0.02 SUV | SUV at 24 h (whole blood, iv, 0.3 MBq, rat, i.v., n=8, read-out: Blood SUV): 0.71 ± 0.16 SUV | SUV at 48 h [16]: 0.38 ± 0.02 SUV | SUV at 1 h (whole blood, sc, 0.3 MBq, rat, s.c., n=4, read-out: Blood SUV): 0.65 ± 0.11 SUV | tissue uptake dose (iv, 0.3 MBq, rat, i.v., 8 animals): 48 ± 3 %ID | tissue uptake dose (sc, 0.3 MBq, rat, s.c., 4 animals): 45 ± 3 %ID | brain uptake (rat): negligible | AUC Kidney (rat, i.v., n=8): 1417 ± 102 SUV x h | AUC Liver (rat, i.v., n=8): 92,7 ± 11,0 SUV x h | t1/2 Blood (rat, i.v., n=8): 49,5 h | t1/2 Kidney (rat, i.v., n=8): 14,7 h | t1/2 Liver (rat, i.v., n=8): 39,5 h | Cmax Kidney (rat, i.v., n=8): 74,8 ± 12,8 SUV | Cmax Liver (rat, i.v., n=8): 2,50 ± 0,57 SUV | Peak time Blood (rat, i.v., n=8): 1 h | Peak time Kidney (rat, i.v., n=8): 1 h | Peak time Liver (rat, i.v., n=8): 24 h | AUC Kidney (rat, s.c., n=4): 1285 ± 57 SUV x h | AUC Liver (rat, s.c., n=4): 87,8 ± 9,5 SUV x h | t1/2 Blood (rat, s.c., n=4): 46,4 h | t1/2 Kidney (rat, s.c., n=4): 18,9 h | t1/2 Liver (rat, s.c., n=4): 35,9 h | Cmax Blood (rat, s.c., n=4): 0,65 ± 0,11 SUV | Cmax Kidney (rat, s.c., n=4): 70,2 ± 4,1 SUV | Cmax Liver (rat, s.c., n=4): 2,23 ± 0,32 SUV | Peak time Blood (rat, s.c., n=4): 1 h | Peak time Kidney (rat, s.c., n=4): 4 h | Peak time Liver (rat, s.c., n=4): 24 h | biological half-life of the total activity in the rat body (s.c.): 42.0 h
